Sequences and labels used below:
T1: AhR (aryl hydrocarbon receptor), baculovirus expressed 6His fusion (human, UniProt P35869 11-848)
T1 sequence (looked up): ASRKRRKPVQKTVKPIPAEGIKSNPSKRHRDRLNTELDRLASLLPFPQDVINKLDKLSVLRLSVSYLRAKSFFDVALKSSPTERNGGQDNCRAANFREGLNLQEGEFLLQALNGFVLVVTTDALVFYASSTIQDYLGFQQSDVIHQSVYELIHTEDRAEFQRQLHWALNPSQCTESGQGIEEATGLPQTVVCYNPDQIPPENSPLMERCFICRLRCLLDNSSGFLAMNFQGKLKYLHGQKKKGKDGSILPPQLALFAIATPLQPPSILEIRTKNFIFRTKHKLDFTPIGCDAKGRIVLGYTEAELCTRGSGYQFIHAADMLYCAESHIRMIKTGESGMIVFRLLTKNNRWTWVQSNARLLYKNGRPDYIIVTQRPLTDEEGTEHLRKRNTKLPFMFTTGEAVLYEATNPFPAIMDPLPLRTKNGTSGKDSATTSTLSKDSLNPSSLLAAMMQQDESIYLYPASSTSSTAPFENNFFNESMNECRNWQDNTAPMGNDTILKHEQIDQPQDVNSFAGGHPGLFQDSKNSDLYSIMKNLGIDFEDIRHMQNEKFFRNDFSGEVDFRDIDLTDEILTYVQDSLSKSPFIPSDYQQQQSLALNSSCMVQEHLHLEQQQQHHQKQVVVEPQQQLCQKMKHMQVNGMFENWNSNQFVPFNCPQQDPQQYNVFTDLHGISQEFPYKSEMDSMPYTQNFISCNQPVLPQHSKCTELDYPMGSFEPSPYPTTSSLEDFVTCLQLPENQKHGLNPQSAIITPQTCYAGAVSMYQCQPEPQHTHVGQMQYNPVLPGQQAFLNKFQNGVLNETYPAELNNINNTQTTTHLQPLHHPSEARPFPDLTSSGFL

B1: Arnt (AhR nuclear translocator), baculovirus expressed 6His fusion (natural protein)
chain: not shown
B2: 32P-CΔ553 (AhR deletion construct with C-terminal 553 amino acids deleted, thioredoxin released, 32P-labelled) (domain or fragment, human, UniProt P35869 1-295, looked up)
chain: MNSSSANITYASRKRRKPVQKTVKPIPAEGIKSNPSKRHRDRLNTELDRLASLLPFPQDVINKLDKLSVLRLSVSYLRAKSFFDVALKSSPTERNGGQDNCRAANFREGLNLQEGEFLLQALNGFVLVVTTDALVFYASSTIQDYLGFQQSDVIHQSVYELIHTEDRAEFQRQLHWALNPSQCTESGQGIEEATGLPQTVVCYNPDQIPPENSPLMERCFICRLRCLLDNSSGFLAMNFQGKLKYLHGQKKKGKDGSILPPQLALFAIATPLQPPSILEIRTKNFIFRTKHKLDF
modifications: 32P-phosphate (HMK phosphorylation using 32P-gamma ATP; residue not stated)
B3: TH-CΔ553 (thioredoxin fusion of CΔ553, a deletion construct of human AhR) (domain or fragment, UniProt P35869 1-295, looked up)
chain: B2 chain
B4: unlabelled CΔ553 (AhR deletion construct with C-terminal 553 amino acids deleted, without thioredoxin fusion) (domain or fragment, human, UniProt P35869 1-295, looked up)
chain: B2 chain

Test [1] has as its target T1, AhR (aryl hydrocarbon receptor), …. Kind of test: native gel or EMSA.
The target of test [2] is B1. Kind of test: co-IP.
Test [3] addresses B1. Kind of test: native gel or EMSA.

In the case of B1, in test [1], the binding result was “binds”. Turning to B2, in test [2], the binding result was “binds”. Consider B3, for which the binding result in test [3] is given as “binds”. Take B4: the binding result in test [3] is “binds”.

The values are drawn from PMC2630774 (FEBS letters, 2008).
